We go through 1 molecule from paper PMC6069114, “Fungal Light-Oxygen-Voltage Domains for Optogenetic Control of Gene Expression and Flocculation in Yeast” (mBio, 2018).

Experiment [1] deals with T1, LOV domain of White Collar 1 (WC-1) bound to the Gal4 DNA binding domain (Neurospora crassa, UniProt Q01371 381-508).
T1 construct: White Collar 1 (WC-1), blue-light photoreceptor of Neurospora crassa; LOV domain only; also called WC-1 LOV-BD; WC-1 LOV plus GAL4-DBD; source: yeast two-hybrid fusion; S. cerevisiae BY4741 (wt or gal4Δ-gal80Δ), episomal pRS423, ADH1 promoter
T1 sequence (looked up): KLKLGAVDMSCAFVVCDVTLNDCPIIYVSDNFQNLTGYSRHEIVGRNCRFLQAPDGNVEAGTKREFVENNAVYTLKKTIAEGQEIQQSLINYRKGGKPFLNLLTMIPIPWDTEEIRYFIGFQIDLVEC
Put plainly: two-hybrid; FUN-LOV switch in S. cerevisiae; destabilized firefly luciferase reporter under P_(GAL1) or P_(5XGAL1); luminescence of living cells normalised by OD600; constant white light (100 µmol m^-2 s^-1) or constant blue light (20 µmol m^-2 s^-1), 30°C; fold induction against the average background in constant darkness. To be noted: partners not purified. (In general: In a reporter assay the amount or activity of a reporter protein is the signal.)

Experiment [2] deals with T1, LOV domain of White Collar 1 (WC-1) …. Briefly: two-hybrid; FUN-LOV switch in S. cerevisiae; luciferase activity in protein extracts of cells grown 8 h in constant light (LL) against constant darkness (DD), normalised to total protein. To be noted: partners not purified.

B1: full-length VIVID (VVD) tethered to the Gal4 transactivation domain (natural protein, Neurospora crassa, UniProt Q9C3Y6 1-186, looked up)
chain: MSHTVNSSTMNPWEVEAYQQYHYDPRTAPTANPLFFHTLYAPGGYDIMGYLIQIMNRPNPQVELGPVDTSCALILCDLKQKDTPIVYASEAFLYMTGYSNAEVLGRNCRFLQSPDGMVKPKSTRKYVDSNTINTMRKAIDRNAEVQVEVVNFKKNGQRFVNFLTMIPVRDETGEYRYSMGFQCETE
notes: VIVID (VVD), blue-light photoreceptor of Neurospora crassa; full-length VVD and not just VVD-36; also called VVD-AD; VVD plus GAL4-AD; source: yeast two-hybrid fusion; S. cerevisiae BY4741 (wt or gal4Δ-gal80Δ), episomal pRS425, ADH1 promoter
Take B1: in experiment [1], the “fold induction of the luciferase reporter, blue light over darkness (P_(5XGAL1))” value was 1320 fold and the “fold induction of the luciferase reporter, white light over darkness (P_(5XGAL1))” value worked out at 1220 fold. The “fold induction of luciferase activity in protein extracts, LL over DD” value in experiment [2] was about 2500 fold.
